In publication PMC3510509, “Binding of two DNA molecules by type II topoisomerases for decatenation”:

Columns and labels:
[1] = target: DNA gyrase holoenzyme (EcGyr) (Escherichia coli, UniProt P0AES4;P0AES6 1-875;1-804); assay: EMSA; 1.4 mM ATP; one complex; EMSA: 35 mM Tris-HCl pH 7.5, 1 mM spermidine, 25 mM K-glutamate, 90 ug/ml tRNA, 1.4 mM ATP, 50 ug/ml BSA, room temp (25 C), 1 nM DNA; filter binding: same mix o
[2] = target: T1, DNA gyrase holoenzyme (MsGyr) (Mycobacterium smegmatis, UniProt P48354;P0C559 1-842;1-675); assay: EMSA; 1.4 mM ATP; one complex; EMSA: 35 mM Tris-HCl pH 7.5, 1 mM spermidine, 25 mM K-glutamate, 90 ug/ml tRNA, 1.4 mM ATP, 50 ug/ml BSA, room temp (25 C), 1 nM DNA; filter binding: same mix on ice; SPR: 33 mM Tris-HCl pH 8.0, 5 mM MgCl2, 3 mM DTT, 25 C; details: protein: recombinant; chain copies: 2;2; label: 32P 5'-end; blunt
[3] = target: T1, DNA gyrase holoenzyme (MsGyr); assay: EMSA; 1.4 mM ATP; two complexes; EMSA: 35 mM Tris-HCl pH 7.5, 1 mM spermidine, 25 mM K-glutamate, 90 ug/ml tRNA, 1.4 mM ATP, 50 ug/ml BSA, room temp (25 C), 1 nM DNA; filter binding: same mix on ice; SPR: 33 mM Tris-HCl pH 8.0, 5 mM MgCl2, 3 mM DTT, 25 C; details: protein: recombinant, chain copies: 2;2, blunt
[4] = target: MAEB hybrid gyrase (MsGyrA + EcGyrB) (Mycobacterium smegmatis / Escherichia …, UniProt P48354;P0AES6 1-842;1-804); assay: EMSA; one complex; EMSA: 35 mM Tris-HCl pH 7.5, 1 mM spermidine, 25 mM K-glutamate, 90 ug/ml tRNA, 1.4 mM ATP, 50 ug/ml BSA, room temp (25 C), 1 nM DNA; filter binding: same mix o
GyrB R321A = GyrB R321A (Mycobacterium smegmatis, UniProt P0C559 1-675, R321A); assay: EMSA; 200 and 400 nM; complex not seen; EMSA: 35 mM Tris-HCl pH 7.5, 1 mM spermidine, 25 mM K-glutamate, 90 ug/ml tRNA, 1.4 mM ATP, 50 ug/ml BSA, room temp (25 C), 1 nM DNA; filter binding: same mix on ice; SPR: 33 mM Tris-HCl pH 8.0, 5 mM MgCl2, 3 mM DTT, 25 C; details: protein: recombinant; label: 32P 5'-end; blunt
[5] = target: Topoisomerase IV holoenzyme (Escherichia coli, UniProt P0AFI2;P20083 1-752;1-630); assay: EMSA; 5-40 nM; two complexes; EMSA: 35 mM Tris-HCl pH 7.5, 1 mM spermidine, 25 mM K-glutamate, 90 ug/ml tRNA, 1.4 mM ATP, 50 ug/ml BSA, room temp (25 C), 1 nM DNA; filter binding: same mix on ice; SPR: 33 mM Tris-HCl pH 8.0, 5 mM MgCl2, 3 mM DTT, 25 C; details: protein: recombinant; chain copies: 2;2; label: 32P 5'-end; blunt
ParE = ParE (Escherichia coli, UniProt P20083 1-630); assay: filter binding; 20 nM protein; most efficient of those tested; EMSA: 35 mM Tris-HCl pH 7.5, 1 mM spermidine, 25 mM K-glutamate, 90 ug/ml tRNA, 1.4 mM ATP, 50 ug/ml BSA, room temp (25 C), 1 nM DNA; filter binding: same mix on ice; SPR: 33 mM Tris-HCl pH 8.0, 5 mM MgCl2, 3 mM DTT, 25 C; details: protein: recombinant; label: 32P 5'-end; blunt
GyrB (MsGyrB) = GyrB (MsGyrB) (Mycobacterium smegmatis, UniProt P0C559 1-675); assay: EMSA; 0.1 and 0.2 uM GyrB; EMSA: 35 mM Tris-HCl pH 7.5, 1 mM spermidine, 25 mM K-glutamate, 90 ug/ml tRNA, 1.4 mM ATP, 50 ug/ml BSA, room temp (25 C), 1 nM DNA; filter binding: same mix on ice; SPR: 33 mM Tris-HCl pH 8.0, 5 mM MgCl2, 3 mM DTT, 25 C; details: protein: recombinant; label: 32P 5'-end; blunt
[6] = target: EAMB hybrid gyrase (EcGyrA + MsGyrB) (Escherichia coli / Mycobacterium …, UniProt P0AES4;P0C559 1-875;1-675); assay: EMSA; two complexes; EMSA: 35 mM Tris-HCl pH 7.5, 1 mM spermidine, 25 mM K-glutamate, 90 ug/ml tRNA, 1.4 mM ATP, 50 ug/ml BSA, room temp (25 C), 1 nM DNA; filter binding: same mix on ice; SPR: 33 mM Tris-HCl pH 8.0, 5 mM MgCl2, 3 mM DTT, 25 C; details: protein: recombinant; chain copies: 2;2; label: 32P 5'-end; blunt
[7] = target: T1, DNA gyrase holoenzyme (MsGyr); assay: pull-down; first DNA, then 240 bp; 200 nM enzyme; EMSA: 35 mM Tris-HCl pH 7.5, 1 mM spermidine, 25 mM K-glutamate, 90 ug/ml tRNA, 1.4 mM ATP, 50 ug/ml BSA, room temp (25 C), 1 nM DNA; filter binding: same mix on ice; SPR: 33 mM Tris-HCl pH 8.0, 5 mM MgCl2, 3 mM DTT, 25 C; details: protein: recombinant; chain copies: 2;2; label: biotin on one strand, 32P on complement; blunt

B1: DNA I (40 bp) (dsDNA)
DNA 1: GGTTGGACTAAGTCCCCAGGCCCCTTAGCCACCACAACGT
DNA 2: ACGTTGTGGTGGCTAAGGGGCCTGGGGACTTAGTCCAACC
binding result [1]: binds | binding result [2]: binds

B2: DNA III (143 bp) (dsDNA)
DNA 1: GTAAAACGACGGCCAGTGCCAAGCTTGCATGCCTGCAGGTCGACTCTAGAGGATCCCCGGTTGGACTAAGTCCCCAGGCCCCTTAGCCACCACAACGTGGGTACCGAGCTCGAATTCGTAATCATGGTCATAGCTGTTTCCTG
DNA 2: CAGGAAACAGCTATGACCATGATTACGAATTCGAGCTCGGTACCCACGTTGTGGTGGCTAAGGGGCCTGGGGACTTAGTCCAACCGGGGATCCTCTAGAGTCGACCTGCAGGCATGCAAGCTTGGCACTGGCCGTCGTTTTAC
binding result ([3]; label: 32P 5'-end (forward primer)): binds | binding result [1]: binds

B3: DNA II (72 bp) (dsDNA)
DNA 1: ACTCTAGAGGATCCCCGGTTGGACTAAGTCCCCAGGCCCCTTAGCCACCACAACGTGGGTACCGAGCTCGAA
DNA 2: TTCGAGCTCGGTACCCACGTTGTGGTGGCTAAGGGGCCTGGGGACTTAGTCCAACCGGGGATCCTCTAGAGT
binding result ([3]; label: 32P 5'-end): binds | binding result [4]: binds | binding result (GyrB R321A): no binding | binding result [5]: binds | binding result [1]: binds | binding result (ParE): binds | binding result (GyrB (MsGyrB)): binds | binding result [6]: binds

B4: biotinylated 72 bp DNA (dsDNA)
DNA 1: ACTCTAGAGGATCCCCGGTTGGACTAAGTCCCCAGGCCCCTTAGCCACCACAACGTGGGTACCGAGCTCGAA
DNA 2: TTCGAGCTCGGTACCCACGTTGTGGTGGCTAAGGGGCCTGGGGACTTAGTCCAACCGGGGATCCTCTAGAGT
binding result [7]: binds
